T1: integrin alphavbeta3 (human, UniProt P06756)
T1 chain 1: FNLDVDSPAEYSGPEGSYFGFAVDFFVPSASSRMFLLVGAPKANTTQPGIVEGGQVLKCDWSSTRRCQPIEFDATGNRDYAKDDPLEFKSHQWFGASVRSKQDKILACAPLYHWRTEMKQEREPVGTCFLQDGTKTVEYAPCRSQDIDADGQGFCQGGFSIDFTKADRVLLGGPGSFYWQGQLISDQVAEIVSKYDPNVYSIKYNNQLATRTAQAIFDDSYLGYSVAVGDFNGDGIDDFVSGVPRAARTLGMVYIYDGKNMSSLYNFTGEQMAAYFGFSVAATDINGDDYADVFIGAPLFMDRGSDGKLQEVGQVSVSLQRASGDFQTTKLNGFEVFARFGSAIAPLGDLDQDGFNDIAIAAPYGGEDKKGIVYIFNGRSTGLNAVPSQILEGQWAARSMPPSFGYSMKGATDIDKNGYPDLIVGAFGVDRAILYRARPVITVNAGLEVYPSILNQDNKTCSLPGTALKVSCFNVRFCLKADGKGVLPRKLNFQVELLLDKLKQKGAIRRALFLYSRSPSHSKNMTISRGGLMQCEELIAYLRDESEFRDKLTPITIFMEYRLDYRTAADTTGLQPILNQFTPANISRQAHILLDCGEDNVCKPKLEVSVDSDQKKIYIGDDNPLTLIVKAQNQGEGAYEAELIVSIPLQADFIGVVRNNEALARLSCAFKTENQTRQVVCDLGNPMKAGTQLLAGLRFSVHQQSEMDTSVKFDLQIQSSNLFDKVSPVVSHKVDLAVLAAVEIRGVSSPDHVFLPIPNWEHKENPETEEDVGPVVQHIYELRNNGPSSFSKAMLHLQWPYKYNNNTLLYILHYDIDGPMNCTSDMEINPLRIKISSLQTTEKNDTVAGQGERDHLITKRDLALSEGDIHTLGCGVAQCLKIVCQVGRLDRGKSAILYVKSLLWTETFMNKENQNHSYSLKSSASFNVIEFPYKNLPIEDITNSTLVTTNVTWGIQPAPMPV
T1 chain 2: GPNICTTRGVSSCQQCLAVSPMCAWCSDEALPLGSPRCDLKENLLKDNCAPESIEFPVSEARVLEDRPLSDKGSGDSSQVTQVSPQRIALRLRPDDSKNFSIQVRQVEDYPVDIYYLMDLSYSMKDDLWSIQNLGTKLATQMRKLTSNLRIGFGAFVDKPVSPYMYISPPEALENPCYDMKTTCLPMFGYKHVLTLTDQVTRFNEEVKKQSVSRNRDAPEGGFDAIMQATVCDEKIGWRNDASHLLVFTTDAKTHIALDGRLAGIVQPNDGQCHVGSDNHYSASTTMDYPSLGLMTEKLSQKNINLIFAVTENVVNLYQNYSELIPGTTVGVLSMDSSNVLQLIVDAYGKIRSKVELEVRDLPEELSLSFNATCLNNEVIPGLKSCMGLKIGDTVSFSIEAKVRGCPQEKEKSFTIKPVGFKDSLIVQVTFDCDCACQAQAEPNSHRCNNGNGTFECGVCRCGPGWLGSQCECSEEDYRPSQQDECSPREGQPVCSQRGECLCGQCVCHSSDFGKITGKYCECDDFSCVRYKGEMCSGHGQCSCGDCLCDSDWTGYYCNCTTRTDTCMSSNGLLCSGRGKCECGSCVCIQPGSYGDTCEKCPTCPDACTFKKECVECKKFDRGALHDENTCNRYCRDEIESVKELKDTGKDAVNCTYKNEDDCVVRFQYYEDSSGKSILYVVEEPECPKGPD

T2: integrin alphavbeta5 (human, UniProt P06756)
T2 chain 1: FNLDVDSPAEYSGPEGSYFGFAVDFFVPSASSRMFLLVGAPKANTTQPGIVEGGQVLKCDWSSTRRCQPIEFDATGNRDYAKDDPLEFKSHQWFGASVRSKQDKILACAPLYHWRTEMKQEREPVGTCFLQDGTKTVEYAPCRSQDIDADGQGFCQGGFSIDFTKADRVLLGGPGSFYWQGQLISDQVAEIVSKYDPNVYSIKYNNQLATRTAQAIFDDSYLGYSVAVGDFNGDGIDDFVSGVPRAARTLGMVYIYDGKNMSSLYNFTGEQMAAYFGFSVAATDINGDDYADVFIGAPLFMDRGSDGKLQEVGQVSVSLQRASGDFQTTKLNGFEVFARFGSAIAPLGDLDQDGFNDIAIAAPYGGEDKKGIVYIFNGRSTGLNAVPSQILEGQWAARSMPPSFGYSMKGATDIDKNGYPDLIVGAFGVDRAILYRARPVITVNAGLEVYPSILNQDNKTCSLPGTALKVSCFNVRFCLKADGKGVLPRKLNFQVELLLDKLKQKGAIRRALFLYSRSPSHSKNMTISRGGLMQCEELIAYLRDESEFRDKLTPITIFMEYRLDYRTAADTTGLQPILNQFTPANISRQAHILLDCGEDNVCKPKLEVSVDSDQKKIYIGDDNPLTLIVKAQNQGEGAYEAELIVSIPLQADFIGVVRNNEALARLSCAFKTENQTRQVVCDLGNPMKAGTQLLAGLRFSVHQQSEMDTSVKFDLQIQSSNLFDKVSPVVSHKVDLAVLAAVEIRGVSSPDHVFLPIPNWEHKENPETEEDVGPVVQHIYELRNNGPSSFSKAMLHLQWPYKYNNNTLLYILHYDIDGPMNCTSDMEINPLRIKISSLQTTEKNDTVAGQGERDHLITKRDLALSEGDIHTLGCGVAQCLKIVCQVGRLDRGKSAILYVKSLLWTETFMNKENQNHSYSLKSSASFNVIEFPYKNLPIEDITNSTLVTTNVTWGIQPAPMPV
T2 chain 2: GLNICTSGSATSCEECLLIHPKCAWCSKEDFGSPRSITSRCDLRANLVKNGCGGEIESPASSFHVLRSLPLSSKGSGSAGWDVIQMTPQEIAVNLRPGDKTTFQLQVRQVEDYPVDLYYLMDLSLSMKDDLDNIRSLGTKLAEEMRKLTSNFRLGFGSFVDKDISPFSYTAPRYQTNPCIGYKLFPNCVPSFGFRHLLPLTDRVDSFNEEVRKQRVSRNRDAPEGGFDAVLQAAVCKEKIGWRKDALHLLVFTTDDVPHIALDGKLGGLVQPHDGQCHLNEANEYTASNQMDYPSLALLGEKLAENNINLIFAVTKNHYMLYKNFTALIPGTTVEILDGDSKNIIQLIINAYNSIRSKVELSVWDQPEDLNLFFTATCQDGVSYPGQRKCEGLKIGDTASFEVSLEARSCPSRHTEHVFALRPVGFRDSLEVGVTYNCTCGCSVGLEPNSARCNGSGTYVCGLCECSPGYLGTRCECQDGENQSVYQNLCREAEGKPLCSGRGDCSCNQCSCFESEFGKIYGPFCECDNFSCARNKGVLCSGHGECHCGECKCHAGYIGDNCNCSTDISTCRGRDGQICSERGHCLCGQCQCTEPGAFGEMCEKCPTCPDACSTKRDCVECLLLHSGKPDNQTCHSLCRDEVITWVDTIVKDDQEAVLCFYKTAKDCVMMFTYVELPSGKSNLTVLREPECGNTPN


What was measured:
integrin alphavbeta3 [1] = target: T1, integrin alphavbeta3; experiment: SPR, mAb captured on Protein A
integrin alphavbeta3 [2] = target: T1, integrin alphavbeta3; experiment: SPR, receptor immobilized, bivalent
integrin alphavbeta5 = target: T2, integrin alphavbeta5; experiment: SPR, receptor immobilized, bivalent

Row | Kd (integrin alphavbeta3 [1]) | Kd (integrin alphavbeta3 [2]) | Kd (integrin alphavbeta5) | Binder
1 | 8.2 nM | – | – | B9HL1G1 (antibody) chain 1: QVQLVQSGAEVKKPGASVKVSCKASGYTFSSYWIEWVKQAPGQGLEWIGEILPRSGNTNYNEKFKGKATFTADTSTSTAYMELSSLRSEDTAVYYCSSRGVRGSMDYWGQGTLVTVSS chain 2: DIQMTQSPSSLSASVGDRVTITCRSSQDISNFLNWYQQKPGKAPKLLIYYTSTLHSGVPSRFSGSGSGTDYTLTISSLQPEDFATYYCQQGNTASLDVRWRY
2 | 7.1 nM | – | – | B9HL2G1 (antibody, V domains shown) VH: QVQLVQSGAEVKKPGASVKVSCKASGYTFSSYWIEWVKQAPGQGLEWIGEILPRSGNTNYNEKFKGKATFTADTSTSTAYMELSSLRSEDTAVYYCSSRGVRGSMDYWGQGTLVTVSS VL: DIQMTQSPSSLSASVGDRVTITCRSSQDISNFLNWYQQKPGKAPKLLIYYTSTLHSGVPSRFSGSGSGTDYTFTISSLQPEDIATYYCQQGNTLPWTFGGGT
3 | 5.4 nM | – | – | B9HL1G4 (antibody) chain 1: QVQLVQSGAEVKKPGASVKVSCKASGYTFSSYWIEWVKQAPGQGLEWIGEILPRSGNTNYNEKFKGKATFTADTSTSTAYMELSSLRSEDTAVYYCSSRGVRGSMDYWGQGTLVTVSS chain 2: DIQMTQSPSSLSASVGDRVTITCRSSQDISNFLNWYQQKPGKAPKLLIYYTSTLHSGVPSRFSGSGSGTDYTLTISSLQPEDFATYYCQQGNTASLDVRWRY
4 | 6.9 nM | – | – | B9HH1G1/HL3K (antibody, V domains shown) VH: QVQLVQSGAEVKKPGASVKVSCKASGYTFSSYWIEWVKQAPGQGLEWIGEILPRSGNTNYNEKFKGKATFTADTSTSTAYMELSSLRSEDTAVYYCSSRGVRGSMDYWGQGTLVTVSS VL: DIQMTQSPSSLSASVGDRVTITCRSSQDISNFLNWYQQKPGKAPKLLIYYTSTLHSGVPSRFSGSGSGTDYTLTISSLQPEDFATYYCQQGNTLPWTFGGGTNVE
5 | – | 0.29 nM | 0.11 nM | murine B9 (antibody, V domains shown) VH: QVQLQQSGAELMKPGASVKISCKATGYTFSSYWIEWVKQRPGHGLEWIGEILPRSGNTNYNEKFKGKATFTAETSSNTAYMQLSSLTPEDSAVYYCSSRGVRGSMDYWGQGTSVTVSS VL: DIQMTQTTSSLSASLGDRVTITCRSSQDISNFLNWYQQKPDGTVKLLIYYTSTLHSGVPSRFSGSGSGTDYSLTISNLEQEDIATYFCQQGNTLPWTFGGGTNLEIKR

Reference: patent publication US7087405 (dated 2006)
